{"source": "paper PMC10628234", "molecular_target": "Coxiella burnetii Fic enzyme 2 (CbFic2), wild type, untagged (Coxiella burnetii) (UniProt Q83DB6)", "assay": "crystal structure", "data": [{"substance": "Coxiella burnetii Fic enzyme 2 (CbFic2), wild type, untagged (from UniProt Q83DB6 1-378)", "values": [{"measurement": "stoichiometry N", "result": 2}]}]}
